Test results from the supplement of paper PMC10567573.
± gives the standard deviation.

Assay: protein stability index of a GFP-peptide fusion (GPS, HEK-293T) (PSI 1-6); higher = more stable
[1] = treatment: DMSO, c terminus: a fixed tail appended
[2] = treatment: MLN4924 1 uM, 8 h, c terminus: a fixed tail appended
[3] = treatment: DMSO, c terminus: native
[4] = treatment: MLN4924 1 uM, 8 h, c terminus: native
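Note: 24-mer peptide tiles fused after GFP, lentivirally expressed, FACS-sorted into six equal bins by GFP/DsRed ratio, decoded by Illumina sequencing, PSI is the read-weighted mean bin number.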

| Sequence | protein stability index [1] | protein stability index [2] | protein stability index [3] | protein stability index [4] |
| --- | --- | --- | --- | --- |
| VEEQLAQLRCEMEQQNQEYKILLD [KRT17] | 4.75 ± 0.29 | 4.78 ± 0.22 |  |  |
| IILTATDGLFDNMPDYMILQELKK [PPTC7] | 2.31 ± 0.32 | 2.22 ± 0.19 |  |  |
| GLPGSGKTTLARQLQHDFPRALIF [N4BP2L1] | 2.25 ± 0.18 | 2.56 ± 0.23 |  |  |
| PPLRLWRSVIEVPAVPEEILKRLL [DLC1] | 2.26 ± 0.46 | 2.43 ± 0.18 |  |  |
| LKNHFQSVLEQLELQEKQKNEKLI [TAF7L] | 2.82 ± 0.12 | 2.95 ± 0.22 |  |  |
| EKDNSRRMLTDKEREMAEIRDQMQ [LMNB1] | 5.3 ± 0.12 | 5.32 ± 0.13 |  |  |
| DLLHNVSQNIAAETRAEDPPWFEG [DFFB] | 3.753 ± 0.011 | 3.85 ± 0.13 |  |  |
| SRLLIFPLYICCNFLYISPEKKN [GMCL1] |  |  | 2.97 ± 0.27 | 2.71 ± 0.43 |
| SEQLVNFTGKAEMGGPFSYVYFFC [TMEM106C] | 2.69 ± 0.48 | 2.64 ± 0.45 |  |  |
| LVVADDKMAAFHGAGLKRYLLTVM [ADAMTS4] | 2.72 ± 0.63 | 2.35 ± 0.61 |  |  |
| AAIFKIYLSCLEELMKCQIIYPRQ [TRIP13] | 3.08 ± 0.43 | 3.21 ± 0.17 |  |  |
| QDLIEDLKLARKAYHDPMLKLSIM [NET1] | 2.33 ± 0.38 | 2.46 ± 0.26 |  |  |
| LDMELGPSQGQETNEVCEQAGGGA [ADAMTSL2] | 5.33 ± 0.52 | 5.27 ± 0.54 |  |  |
| QQRSKDLESRQRSLEQANRSLQLR [TFE3] | 4.76 ± 0.062 | 4.655 ± 0.041 |  |  |
| SNIKFCSFHPLQYIGFYGKETTNT [PDS5B] | 2.1 ± 0.47 | 2.29 ± 0.16 |  |  |
| PGGPCDSTLGGDIRESDPEQAPAP [TBX6] | 5.49 ± 0.16 | 5.44 ± 0.29 |  |  |
| PLGGGVGGQDGLGAPKDQQQPPQQ [KLHL14] | 5.31 ± 0.39 | 5.33 ± 0.26 |  |  |
| ILVSVAAGVSLSTLEELLPPNTRV [PYCR3] | 2.77 ± 0.49 | 2.62 ± 0.54 |  |  |
| TTIKRKREDDKLVVECVMKGVTST [FABP4] | 3.9 ± 0.52 | 3.9 ± 0.19 |  |  |
| IYAHRVILSACSPYFRAMFTGELA [KLHL20] | 3.16 ± 0.56 | 2.9 ± 0.65 |  |  |
| PAAPGAGGGSGSAPGPSRIADYLL [TRIB1] | 4.02 ± 0.68 | 4.14 ± 0.21 |  |  |
| VHEVLQAVDAGDPAVEACENRRKV [TCF25] | 5.3 ± 0.22 | 5.35 ± 0.097 |  |  |
| SAVAMYMLYEKQKQQNVAHCMLVS [ZBED1] | 2.92 ± 0.54 | 2.74 ± 0.53 |  |  |

| Sequence | protein stability index [1] | protein stability index [2] | protein stability index [3] | protein stability index [4] |
| --- | --- | --- | --- | --- |
| TARVIIPLLKDEGFAVKALWGRTQ [GFOD1] | 2.08 ± 0.32 | 2.27 ± 0.35 |  |  |
| VLREDQIPRGFPTIDMGPQLKVVE [PTPRD] | 3.898 ± 0.018 | 3.34 ± 1.1 |  |  |
| ELALFQMSVLWLEHDRETRMQYAP [KLHL14] | 2.44 ± 0.58 | 2.46 ± 0.34 |  |  |
| TPVMEGYVEVKEGKTWKQICDKHW [LOXL2] | 3.28 ± 0.32 | 3.51 ± 0.37 |  |  |
| QGITMGCWDMYRHDIDCQWVDITD [LOXL2] | 2.4 ± 0.55 | 2.73 ± 0.42 |  |  |
| TIVKARDKLYHPECFMCSDCGLNL [PDLIM4] | 2.19 ± 0.44 | 2.42 ± 0.19 |  |  |
| QFRLKEAFDYIKQRRSMVSPNFGF [DUSP5] | 2.19 ± 0.31 | 2.22 ± 0.17 |  |  |
| VCRDSVSRKGELTPLPETGYWRVR [TRIM39] | 2.55 ± 0.1 | 2.71 ± 0.57 |  |  |
| NDTAGPELPDPLGGLLDEAMLDEI [NFE2L1] | 5.22 ± 0.41 | 5.6 ± 0.13 |  |  |
| RGDRGPGPALAGEPAGSLRELGVW [C2CD2L] | 3.25 ± 0.14 | 3.55 ± 0.27 |  |  |
| TPGIDLTRVLAEMREQYEAMAERN [KRT13] | 4.13 ± 0.49 | 4.4 ± 0.32 |  |  |
| LNGYRLGERVLQVSFKTSKQHKA [ELAVL3] |  |  | 3.16 ± 0.29 | 2.69 ± 0.42 |
| DRYSEGIKHVLQTFGPIPEFSRAT [CRYL1] | 3.06 ± 0.58 | 3.36 ± 0.3 |  |  |
| NDRVQTIITQLEDSRRVTKENSHQ [TRIM63] | 4.99 ± 0.23 | 4.92 ± 0.13 |  |  |
| VPLQLSAHWQCGATLTQVSVEYGY [FCHO1] | 2.76 ± 0.76 | 2.6 ± 0.67 |  |  |
| AIELQGHNDRVQALSYAQHTRQLI [WDFY2] | 3.1 ± 0.36 | 3.15 ± 0.41 |  |  |
| SCSSEDNLSLVCLPRSEDDDCDDD [DRICH1] | 5.59 ± 0.17 | 5.66 ± 0.15 |  |  |
| PRCKTTKYRNPSLKLMVNVCGHTL [MNAT1] | 2.39 ± 0.18 | 2.31 ± 0.23 |  |  |
| PPWGLGPGAGDPAPGIGPPEPWPG [MYCL] | 3.63 ± 0.39 | 3.92 ± 0.058 |  |  |
| ANNRILAERIAKEIQVIPLQRDDE [IMPA1] | 4.17 ± 0.38 | 4.04 ± 0.068 |  |  |
| EKGRALQIRDWRGGRLENQKPRGL [ZSWIM9] | 4 ± 0.34 | 4.2 ± 0.35 |  |  |
| KGSFGKVCIVQKNDTKKMYAMKYM [STK32A] | 2.49 ± 0.41 | 2.41 ± 0.23 |  |  |
